Results on 1 molecule are retold here after US20130323263A1, “SPARC ANGIOGENIC DOMAIN AND METHODS OF USE” (ABRAXIS BIOSCIENCE, LLC, priority 2010, published 2013).

The subject of assay [1] is HUVEC. In words: HUVEC (3-D) tube formation assay. The note with it: for angiogenic activity: FIG. 2. It is filed as cell-based. How it is done: (§1) Recombinant human SPARC and genetically engineered variants were expressed and purified using HEK 293 cells maintained in hollow fiber bio-reactors. The angiogenic activity of rhSPARC and its variants was evaluated using a HUVEC tube formation assay and a HUVEC sprout formation bead assay.
(§2) In the HUVEC tube formation assay, rhSPARC was pro-angiogenic at 10 μg/mL and anti-angiogenic at 100 μg/mL. […] Additional rhSPARC variants with deletions and single/double amino acid substitutions tested in these assays included: Q3 deletion (BIO2), an inversion of the putative angiogenic domain (BIOS), a double K>Q substitution in the proposed angiogenic domain (BIO11), the genetic ablation of the putative catephsin K recognition sites (BIO8), and a proteolytic degradation product of rhSPARC. Terminal amino acid analysis indicated the angiogenic activity is localized to SEQ ID NO: 1.

The subject of assay [2] is HUVEC. Kind of assay: HUVEC sprout formation bead assay. It is filed as cell-based. How it is done:
as §1, §2

B1: rhSPARC: Recombinant human SPARC expressed and purified using HEK 293 cells (protein, UniProt P09486 18-303, looked up)
SPARC: APQQEALPDETEVVEETVAEVTEVSVGANPVQVEVGEFDDGAEETEEEVVAENPCQNHHCKHGKVCELDENNTPMCVCQDPTSCPAPIGEFEKVCSNDNKTFDSSCHFFATKCTLEGTKKGHKLHLDYIGPCKYIPPCLDSELTEFPLRMRDWLKNVLVTLYERDEDNNLLTEKQKLRVKKIHENEKRLEAGDHPVELLARDFEKNYNMYIFPVHWQFGQLDQHPIDGYLSHTELAPLRAPLIPMEHCTTRFFETCDLDNDKYIALDEWAGCFGIKQKDIDKDLVI
B1: the “angiogenic behavior over concentration” value in assay [1] (HUVEC 3-D tube formation, concentrations up to 100 ug/ml, FIG. 4) was “increases as the concentration approaches 10 ug/ml and drops off as it approaches 100 ug/ml”. Moreover, the angiogenic activity result is reported as “pro-angiogenic” in assay [1] (at 10 μg/mL) and “anti-angiogenic” in assay [1] (at 100 μg/mL). Also, the “blood vessel maturity on addition of the protein” value in assay [2] is recorded as “more mature blood vessels well supported by pericytes”.
